Test results from patent US20250115680A1 (PROFOUNDBIO US, published 2025).

T1: human PTK7 on the surface of PTK7-expressing tumor cell lines (human, UniProt Q13308 31-1070)
T1 construct: whole, on cells
T1 sequence (looked up): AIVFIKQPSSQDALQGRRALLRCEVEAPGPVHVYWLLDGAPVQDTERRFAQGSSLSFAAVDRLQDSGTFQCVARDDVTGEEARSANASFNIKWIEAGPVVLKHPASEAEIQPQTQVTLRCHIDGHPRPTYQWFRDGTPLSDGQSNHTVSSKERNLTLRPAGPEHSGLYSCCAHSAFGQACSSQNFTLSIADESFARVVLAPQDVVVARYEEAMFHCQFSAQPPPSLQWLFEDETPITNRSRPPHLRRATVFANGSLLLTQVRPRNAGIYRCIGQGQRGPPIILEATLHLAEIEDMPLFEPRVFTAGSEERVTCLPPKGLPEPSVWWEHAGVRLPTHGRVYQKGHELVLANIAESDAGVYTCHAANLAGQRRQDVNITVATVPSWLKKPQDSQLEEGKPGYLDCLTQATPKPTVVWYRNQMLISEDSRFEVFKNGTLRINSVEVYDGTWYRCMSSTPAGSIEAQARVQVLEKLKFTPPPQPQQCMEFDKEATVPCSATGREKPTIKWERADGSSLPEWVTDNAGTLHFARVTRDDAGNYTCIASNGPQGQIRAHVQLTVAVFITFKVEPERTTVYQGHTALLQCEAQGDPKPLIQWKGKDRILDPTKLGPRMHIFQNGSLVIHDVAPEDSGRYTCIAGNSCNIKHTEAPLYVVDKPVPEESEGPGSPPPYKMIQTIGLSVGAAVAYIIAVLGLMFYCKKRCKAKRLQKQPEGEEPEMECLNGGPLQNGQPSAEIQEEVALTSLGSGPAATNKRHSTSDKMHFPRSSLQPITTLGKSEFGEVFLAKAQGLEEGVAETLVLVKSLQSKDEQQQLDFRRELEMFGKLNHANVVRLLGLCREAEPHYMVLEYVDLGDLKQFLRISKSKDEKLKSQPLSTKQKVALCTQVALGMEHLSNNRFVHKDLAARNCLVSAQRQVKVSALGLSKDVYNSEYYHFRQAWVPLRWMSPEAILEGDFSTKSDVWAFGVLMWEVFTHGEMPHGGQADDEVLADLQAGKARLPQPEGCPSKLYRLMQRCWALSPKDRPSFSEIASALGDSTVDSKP

T2: cynomolgus PTK-7 recombinant protein (cynomolgus monkey, UniProt A0A2K5VNI5 39-712)
T2 construct: also called cynomolgus monkey PTK7 protein; cyano PTK7
T2 sequence: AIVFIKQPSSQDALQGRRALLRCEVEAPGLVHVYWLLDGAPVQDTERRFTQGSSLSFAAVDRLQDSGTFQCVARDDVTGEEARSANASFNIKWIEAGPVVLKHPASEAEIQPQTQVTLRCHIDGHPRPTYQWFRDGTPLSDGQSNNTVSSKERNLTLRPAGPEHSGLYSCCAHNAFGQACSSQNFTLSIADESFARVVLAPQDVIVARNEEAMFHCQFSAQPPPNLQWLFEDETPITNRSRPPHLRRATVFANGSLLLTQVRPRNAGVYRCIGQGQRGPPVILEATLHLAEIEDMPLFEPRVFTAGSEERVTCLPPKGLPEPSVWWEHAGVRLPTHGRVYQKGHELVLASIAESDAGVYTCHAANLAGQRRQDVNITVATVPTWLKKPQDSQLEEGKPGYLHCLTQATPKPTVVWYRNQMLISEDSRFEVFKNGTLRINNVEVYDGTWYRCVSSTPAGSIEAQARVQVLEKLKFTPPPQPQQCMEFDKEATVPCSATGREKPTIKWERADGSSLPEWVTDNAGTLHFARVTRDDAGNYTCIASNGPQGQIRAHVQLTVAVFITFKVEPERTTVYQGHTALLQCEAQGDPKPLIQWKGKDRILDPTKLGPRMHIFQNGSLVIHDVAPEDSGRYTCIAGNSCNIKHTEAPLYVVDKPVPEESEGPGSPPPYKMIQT


Experiments:
[1] = target: T1, human PTK7 on the surface of …; test: flow cytometry on MDA-MB-468 cells, PE anti-human Fc detection, MFI(PE)
[2] = target: T1, human PTK7 on the surface of …; test: flow cytometry on PA-1 cells, PE anti-human Fc detection, MFI(PE)
[3] = target: T2, cynomolgus PTK-7 recombinant protein; test: ELISA, plate-coated cynomolgus PTK7 protein, anti-human Fc-HRP detection
Description: Binding specificity property was tested by ELISA according to a standard protocol. Specifically, 96-well micro-plates were coated with 2 μg/mL human, cynomolgus, mouse, and rat PTK-7 recombinant protein in PBS 100 μL per well, incubated overnight at 4° C. Plates were washed twice by TBS+0.5% Tween20. 200 μL of blocking buffer (2% BSA in PBS) was added to each well and incubated at 37° C. for 2 hours. Plates were washed using the buffer mentioned above. Serially diluted antibodies were added to the ELISA plate with 100 μL per well and incubated for 1 hour at room temperature. Then plates were washed for 3 times. After washing, HRP conjugated anti-human Fc antibody solution (abcam, ab98624, diluted with blocking buffer) was added to the plate with 100 μl per well. The plates were incubated at room temperature for 1 hour and then washed for 3 times. Then TMB solution was added to plates with 100 μl per well, placed at room temperature for 5-15 mins, then the stop solution (2M H₂SO₄) was added with 50 μl per well. Finally, the result was measured by absorbance at A₄₅₀ and A₆₃₀.

[4] = target: T1, human PTK7 on the surface of …; test: flow cytometry on MDA-MB-453 cells, PE anti-human Fc detection, MFI(PE)

EC50 [1] | EC50 [2] | EC50 [3] | EC50 [4] | Binder
0.558 nM | 0.808 nM | 1.14 nM | 0.623 nM | humanized antibody 13C4 (antibody, V domains shown, Only variable regions are tied to 13C4; It was detected with anti-human Fc) VH: QVQLVESGGGLVKPGGSLRLSCAASGFAFSTYDMFWIRQAPGKGLEWVSTISSGGGYTYYPGSVKGRFTISRDNAKNSLYLQMNSLRAEDTAVYYCVRPLLRDSYFYFDVWGQGTMVTVSS VL: EIVMTQSPATLSVSPGERATLSCRASSSVSSSYLHWYQQKPGQAPRLLIFRTSNLASGIPARFSGSGSGTEYTLTISSLQSEDAAVYYCQQYSGYPLTFGQGTKLEIK
0.543 nM | 0.711 nM | 1.67 nM | 0.488 nM | humanized antibody 2C5 (antibody, V domains shown, Only variable regions are tied to 2C5; It was detected with anti-human Fc, so it has a human Fc) VH: QVQLVQSGAEVKKPGASVKVSCKASGYTFTDYYINWVRQAPGQGLEWMGDINPYSGGPVYNQKFMARVTMTVDKSINTAYMELSRLRSDDTAVYYCARGDYYGSNYNYWGQGTLVTVSS VL: EIVLTQSPATLSVSPGERATLSCRASQNIGTSIHWYQQKPGQAPRLLIKFASESISGIPARFSGSGSGTEFTLTISSLQSEDIAVYYCQQSNNWPYTFGQGTKLEIK
0.481 nM | 0.562 nM | 2.61 nM | 0.339 nM | humanized antibody 2C8 (antibody, V domains shown, Only variable regions are tied to 2C8 by name; It was detected with anti-human Fc) VH: QIQLVQSGAEVKKPGASVKVSCKASGYTFTTYGMSWVRQAPGQGLEWMGWINTHSGVPTYVDEFKGRVTMTLDTSTSTAYMELSSLRSEDTAVYYCARSPFDYGSRGAWFVYWGQGTTVTVSS VL: DVVMTQSPDSLAVSLGERATINCRSSQSIVHNSGDTYLEWYQQKPGQPPKLLIYKVSNRFPGVPDRFSGSGSGTDFTLTISSLQAEDLAVYYCFQGSHVPWTFGGGTKVEIK
